Assays:
Mouse TREM2, on cells = target: T1, Mouse TREM2, on cells (mouse, UniProt Q99NH8 19-227); assay: FACS cell binding; FIG. 1D
T1 chain: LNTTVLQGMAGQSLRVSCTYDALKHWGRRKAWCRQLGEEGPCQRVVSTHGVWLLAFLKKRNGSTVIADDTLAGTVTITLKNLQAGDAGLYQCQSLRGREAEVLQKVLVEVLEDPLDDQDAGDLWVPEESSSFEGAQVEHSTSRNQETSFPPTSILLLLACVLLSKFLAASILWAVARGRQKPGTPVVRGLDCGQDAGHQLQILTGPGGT

[1] = target: T2, His-tagged TREM2 ECD (ecto domain residues 19-172 of human TREM2, C-terminal 6X-His tag) (UniProt Q9NZC2 19-172); assay: SPR (Biacore)
T2 chain: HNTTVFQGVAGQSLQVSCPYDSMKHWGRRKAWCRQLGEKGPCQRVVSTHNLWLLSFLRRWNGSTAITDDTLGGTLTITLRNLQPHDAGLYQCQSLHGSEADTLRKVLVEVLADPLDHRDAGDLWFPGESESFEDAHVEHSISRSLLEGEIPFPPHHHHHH

B1: RS9.F6 (antibody, V domains shown)
VH: QVQLQQPGAELVKPGASVKLSCKASGYTFTSYWMHWVKQSPGRGLEWIGRSDPTTGGTNYNEKFKTKATLTVDKPSSTAYMQLSSLTSDDSAVYYCVRTSGTGDYWGQGTSLTVSS
VL: DVVMTQTPLSLPVSLGDQASISCRSSQSLVHNNGNTFLHWYLQKPGQSPKLLIYKVSNRFSGVPDRFSGSGSGTDFTLKISRVEAEDLGVYFCSQTTHVPPTFGGGTKLEIK
With B1 the EC50 (Mouse TREM2, on cells) was 6.81 nM.

B2: RS9.F6/3C.35.21.17 (bispecific antibody)
heavy 1: QVQLQQPGAELVKPGASVKLSCKASGYTFTSYWMHWVKQSPGRGLEWIGRSDPTTGGTNYNEKFKTKATLTVDKPSSTAYMQLSSLTSDDSAVYYCVRTSGTGDYWGQGTSLTVSSASTKGPSVFPLAPSSKSTSGGTAALGCLVKDYFPEPVTVSWNSGALTSGVHTFPAVLQSSGLYSLSSVVTVPSSSLGTQTYICNVNHKPSNTKVDKKVEPKSCDKTHTCPPCPAPEAAGGPSVFLFPPKPKDTLMISRTPEVTCVVVDVSHEDPEVKFNWYVDGVEVHNAKTKPREEQYNSTYRVVSVLTVLHQDWLNGKEYKCKVSNKALGAPIEKTISKAKGQPREPQVYTLPPSRDELTKNQVSLWCLVKGFYPSDIAVLWESYGTEWASYKTTPPVLDSDGSFFLYSKLTVTKEEWQQGFVFSCSVMHEALHNHYTQKSLSLSPGK
heavy 2: QVQLQQPGAELVKPGASVKLSCKASGYTFTSYWMHWVKQSPGRGLEWIGRSDPTTGGTNYNEKFKTKATLTVDKPSSTAYMQLSSLTSDDSAVYYCVRTSGTGDYWGQGTSLTVSSASTKGPSVFPLAPSSKSTSGGTAALGCLVKDYFPEPVTVSWNSGALTSGVHTFPAVLQSSGLYSLSSVVTVPSSSLGTQTYICNVNHKPSNTKVDKKVEPKSCDKTHTCPPCPAPEAAGGPSVFLFPPKPKDTLMISRTPEVTCVVVDVSHEDPEVKFNWYVDGVEVHNAKTKPREEQYNSTYRVVSVLTVLHQDWLNGKEYKCKVSNKALGAPIEKTISKAKGQPREPQVYTLPPSRDELTKNQVSLSCAVKGFYPSDIAVEWESNGQPENNYKTTPPVLDSDGSFFLVSKLTVDKSRWQQGNVFSCSVMHEALHNHYTQKSLSLSPGK
light: DVVMTQTPLSLPVSLGDQASISCRSSQSLVHNNGNTFLHWYLQKPGQSPKLLIYKVSNRFSGVPDRFSGSGSGTDFTLKISRVEAEDLGVYFCSQTTHVPPTFGGGTKLEIK
B2 was tested, and the Kd [1] was 2.27 nM.

Source: patent US20200277373A1 (published 2020)
